Values joined by “and” are separate entries in the source; they are usually repeats but may differ in a detail not shown here. Equal values may be shown once. No end group written: not given here.
T1: PACE4 (UniProt P29122 150-969, limits assumed)
T1 sequence (looked up): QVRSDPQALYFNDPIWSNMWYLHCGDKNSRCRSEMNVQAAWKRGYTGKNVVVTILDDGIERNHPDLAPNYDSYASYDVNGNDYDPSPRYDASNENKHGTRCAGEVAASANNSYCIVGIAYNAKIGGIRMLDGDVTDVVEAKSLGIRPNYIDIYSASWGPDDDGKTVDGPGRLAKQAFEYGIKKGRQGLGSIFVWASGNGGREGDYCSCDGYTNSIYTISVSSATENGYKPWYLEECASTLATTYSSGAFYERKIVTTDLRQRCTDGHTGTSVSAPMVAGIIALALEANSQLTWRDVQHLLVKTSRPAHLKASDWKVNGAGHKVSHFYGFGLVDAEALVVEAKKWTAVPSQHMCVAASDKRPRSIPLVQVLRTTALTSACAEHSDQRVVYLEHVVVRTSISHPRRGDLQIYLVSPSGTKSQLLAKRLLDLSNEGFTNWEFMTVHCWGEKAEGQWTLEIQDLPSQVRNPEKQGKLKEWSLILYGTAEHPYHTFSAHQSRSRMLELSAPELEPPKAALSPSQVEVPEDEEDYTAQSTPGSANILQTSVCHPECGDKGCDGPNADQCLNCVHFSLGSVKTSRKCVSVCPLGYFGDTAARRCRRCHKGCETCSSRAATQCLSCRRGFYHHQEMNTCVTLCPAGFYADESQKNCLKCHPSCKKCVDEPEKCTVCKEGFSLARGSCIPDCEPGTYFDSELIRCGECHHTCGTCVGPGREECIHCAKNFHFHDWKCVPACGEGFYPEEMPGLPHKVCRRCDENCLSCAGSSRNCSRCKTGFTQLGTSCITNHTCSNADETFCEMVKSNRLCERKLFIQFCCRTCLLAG

T2: PC5/6 (UniProt Q92824-2 115-913, limits assumed)
T2 sequence (looked up): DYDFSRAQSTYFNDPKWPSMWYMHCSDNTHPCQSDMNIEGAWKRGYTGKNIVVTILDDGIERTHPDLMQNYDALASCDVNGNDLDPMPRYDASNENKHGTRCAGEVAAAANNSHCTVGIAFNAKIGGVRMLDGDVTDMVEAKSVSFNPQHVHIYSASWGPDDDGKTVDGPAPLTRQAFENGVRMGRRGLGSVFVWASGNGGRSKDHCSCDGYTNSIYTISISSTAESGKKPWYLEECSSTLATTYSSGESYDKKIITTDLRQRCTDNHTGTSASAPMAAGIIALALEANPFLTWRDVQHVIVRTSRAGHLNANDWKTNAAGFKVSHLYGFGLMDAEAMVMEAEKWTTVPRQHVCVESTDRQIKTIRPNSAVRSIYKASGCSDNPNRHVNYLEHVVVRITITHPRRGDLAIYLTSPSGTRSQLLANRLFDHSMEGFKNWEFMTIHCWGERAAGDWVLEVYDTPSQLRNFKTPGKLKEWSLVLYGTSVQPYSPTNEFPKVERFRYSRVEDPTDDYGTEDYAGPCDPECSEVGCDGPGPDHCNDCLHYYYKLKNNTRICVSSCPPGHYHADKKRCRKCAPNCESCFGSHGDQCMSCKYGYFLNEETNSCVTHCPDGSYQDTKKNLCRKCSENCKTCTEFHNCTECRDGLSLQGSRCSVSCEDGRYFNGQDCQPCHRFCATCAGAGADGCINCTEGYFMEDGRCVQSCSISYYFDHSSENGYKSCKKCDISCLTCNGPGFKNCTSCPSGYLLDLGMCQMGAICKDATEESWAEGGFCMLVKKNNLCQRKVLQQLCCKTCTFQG

T3: PC4 (UniProt Q6UW60 114-708, limits assumed)
T3 sequence (looked up): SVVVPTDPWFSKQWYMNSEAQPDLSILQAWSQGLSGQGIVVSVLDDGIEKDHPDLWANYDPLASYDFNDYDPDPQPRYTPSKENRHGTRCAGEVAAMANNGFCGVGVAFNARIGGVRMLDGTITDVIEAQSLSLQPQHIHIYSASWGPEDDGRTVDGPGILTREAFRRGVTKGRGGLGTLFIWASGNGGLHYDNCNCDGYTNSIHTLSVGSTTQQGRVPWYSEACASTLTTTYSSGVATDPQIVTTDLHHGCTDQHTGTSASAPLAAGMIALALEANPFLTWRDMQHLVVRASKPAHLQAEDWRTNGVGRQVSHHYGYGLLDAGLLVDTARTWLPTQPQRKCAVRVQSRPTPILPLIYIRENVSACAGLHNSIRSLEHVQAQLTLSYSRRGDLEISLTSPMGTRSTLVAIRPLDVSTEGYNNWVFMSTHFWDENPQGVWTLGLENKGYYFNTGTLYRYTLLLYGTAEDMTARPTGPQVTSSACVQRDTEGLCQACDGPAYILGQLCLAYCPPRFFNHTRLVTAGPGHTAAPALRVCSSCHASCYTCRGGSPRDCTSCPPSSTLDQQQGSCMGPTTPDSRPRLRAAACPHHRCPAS

T4: PC1/3 (UniProt P29120 111-753, limits assumed)
T4 sequence (looked up): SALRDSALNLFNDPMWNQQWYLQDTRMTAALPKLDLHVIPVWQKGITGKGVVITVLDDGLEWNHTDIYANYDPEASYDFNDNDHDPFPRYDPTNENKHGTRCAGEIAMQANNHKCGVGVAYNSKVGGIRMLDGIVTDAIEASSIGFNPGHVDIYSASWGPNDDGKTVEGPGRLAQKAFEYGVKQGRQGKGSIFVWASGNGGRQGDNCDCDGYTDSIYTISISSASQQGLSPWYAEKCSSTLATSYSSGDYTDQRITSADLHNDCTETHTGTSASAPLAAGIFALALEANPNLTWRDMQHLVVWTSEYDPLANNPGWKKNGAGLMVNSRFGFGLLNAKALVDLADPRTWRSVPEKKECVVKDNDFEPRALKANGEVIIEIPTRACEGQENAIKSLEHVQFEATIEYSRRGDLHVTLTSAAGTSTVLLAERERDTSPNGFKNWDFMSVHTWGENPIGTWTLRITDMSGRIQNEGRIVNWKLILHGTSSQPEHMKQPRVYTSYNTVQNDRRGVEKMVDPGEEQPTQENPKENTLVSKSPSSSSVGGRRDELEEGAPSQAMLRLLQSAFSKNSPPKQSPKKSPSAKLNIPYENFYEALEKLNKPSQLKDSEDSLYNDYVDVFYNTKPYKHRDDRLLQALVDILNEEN

T5: PC2 (UniProt P16519 110-638, limits assumed)
T5 sequence (looked up): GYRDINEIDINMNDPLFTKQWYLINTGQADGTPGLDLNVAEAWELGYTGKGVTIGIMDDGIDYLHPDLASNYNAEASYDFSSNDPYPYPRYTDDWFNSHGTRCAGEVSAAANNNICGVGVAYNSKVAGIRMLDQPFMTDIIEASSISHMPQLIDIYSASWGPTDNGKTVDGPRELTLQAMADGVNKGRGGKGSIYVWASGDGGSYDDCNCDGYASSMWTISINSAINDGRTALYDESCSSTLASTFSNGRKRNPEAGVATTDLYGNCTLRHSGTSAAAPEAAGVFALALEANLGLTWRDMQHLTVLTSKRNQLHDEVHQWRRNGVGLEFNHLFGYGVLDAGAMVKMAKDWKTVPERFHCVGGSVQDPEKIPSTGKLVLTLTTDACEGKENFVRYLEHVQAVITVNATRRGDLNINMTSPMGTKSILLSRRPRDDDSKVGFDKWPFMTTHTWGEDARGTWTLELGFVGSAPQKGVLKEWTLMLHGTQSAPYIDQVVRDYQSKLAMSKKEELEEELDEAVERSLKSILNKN

T6: PC7 (UniProt Q16549 142-667, limits assumed)
T6 sequence (looked up): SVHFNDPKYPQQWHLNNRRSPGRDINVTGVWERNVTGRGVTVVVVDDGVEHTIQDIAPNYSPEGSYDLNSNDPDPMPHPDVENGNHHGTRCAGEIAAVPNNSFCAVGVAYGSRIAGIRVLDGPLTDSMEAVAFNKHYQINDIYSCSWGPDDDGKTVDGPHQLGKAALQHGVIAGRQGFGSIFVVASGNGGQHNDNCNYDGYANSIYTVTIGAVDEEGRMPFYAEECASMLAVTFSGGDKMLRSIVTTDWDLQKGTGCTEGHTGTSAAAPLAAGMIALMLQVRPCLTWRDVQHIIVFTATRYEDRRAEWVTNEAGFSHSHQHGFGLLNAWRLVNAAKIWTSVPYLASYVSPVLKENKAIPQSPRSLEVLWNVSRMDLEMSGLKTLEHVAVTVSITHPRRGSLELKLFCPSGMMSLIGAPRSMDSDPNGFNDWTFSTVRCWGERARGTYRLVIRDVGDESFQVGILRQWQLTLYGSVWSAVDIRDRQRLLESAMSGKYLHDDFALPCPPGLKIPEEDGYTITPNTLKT

B1: LLLLLRVKR-NH2 (peptide)
peptide: LLLLLRVKR-NH2
notes: also called 5 Leu; multi-leucine peptide containing five leucines

Columns and labels:
PACE4 [1] = target: T1, PACE4; test: enzyme inhibition assay, ratio of Ki values against the other PCs
Procedure: (§1) Enzyme inhibition assays for furin (FIG. 5D) were performed in 100 mM Hepes pH 7.5, 1 mM CaCl₂, 1 mM β-mercaptoethanol, 0.5 μg/μL BSA. Assays for PC2 (FIG. 5E) were performed in 20 mM Bis-Tris pH 5.7, 1 mM CaCl₂, 0.1% Brij-30. Assays for PC1/3, PC4, PACE4, PC5/6 and PC7 (FIGS. 5F, G, A, B and C respectively) were performed in 20 mM Bis-T is pH 6.5, 1 mM CaCl₂. […] Inhibitory peptides were added to the enzymes at decreasing concentrations from 100 μM to 50 nM and incubated 5 minutes prior to the addition of substrate. […] Each Kᵢ value is the mean of 2 to 10 independent experiments.

PC5/6 = target: T2, PC5/6; test: enzyme inhibition assay, fluorogenic substrate PyrRTKR-MCA
Procedure: as §1

PC4 = target: T3, PC4; test: as above
Procedure: as §1

PC1/3 = target: T4, PC1/3; test: as above
Procedure: as §1

PC2 = target: T5, PC2; test: as above
Procedure: as §1

furin = furin (UniProt P09958 108-715, limits assumed); test: as above
Procedure: as §1

PACE4 [2] = target: T1, PACE4; test: as above
Procedure: as §1

PC7 = target: T6, PC7; test: as above
Procedure: as §1

Chain of furin (P09958 108-715 limits assumed): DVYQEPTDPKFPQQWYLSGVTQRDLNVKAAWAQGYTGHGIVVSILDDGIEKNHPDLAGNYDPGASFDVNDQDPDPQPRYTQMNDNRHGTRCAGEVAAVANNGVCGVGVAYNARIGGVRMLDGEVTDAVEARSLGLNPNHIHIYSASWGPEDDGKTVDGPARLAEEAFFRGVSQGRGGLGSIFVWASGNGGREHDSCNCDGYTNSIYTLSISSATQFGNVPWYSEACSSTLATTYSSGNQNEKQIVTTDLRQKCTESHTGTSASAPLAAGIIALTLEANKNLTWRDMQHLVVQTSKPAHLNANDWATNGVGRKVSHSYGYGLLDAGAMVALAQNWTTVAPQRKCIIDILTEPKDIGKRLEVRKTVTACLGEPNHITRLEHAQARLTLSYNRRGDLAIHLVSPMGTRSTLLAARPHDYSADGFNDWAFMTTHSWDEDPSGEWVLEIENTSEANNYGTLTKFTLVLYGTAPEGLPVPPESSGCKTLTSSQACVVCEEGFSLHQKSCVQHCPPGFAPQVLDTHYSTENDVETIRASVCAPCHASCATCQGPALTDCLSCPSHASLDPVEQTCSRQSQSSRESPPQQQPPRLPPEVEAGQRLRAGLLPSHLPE

Binder | fold more effective on PACE4 than the other PCs (PACE4 [1]) [fold] | Ki (PC5/6) [nM] | Ki (PC4) [nM] | Ki (PC1/3) [nM] | Ki (PC2) [nM] | Ki (furin) [nM] | Ki (PACE4 [2]) | Ki (PC7)
LLLLRVKR-NH2 (also called 4 Leu; Multi-Leu (ML)) [LLLLRVKR-NH2] | ≥ 9 | 245 | 205 | 454 | 18800 | 114 | 6 nM and 5.5 nM and 5 nM | 54 nM and 50 nM
B1 |  |  | 164 |  |  |  |  | 

Source: patent US20110178027A1 (SOCIETE DE COMMERCIALISATION DES PRODUITS DE LA RECHERCHE …, published 2011)
